Measurements published in the supplement of paper PMC11136658.

Test system: peptide library, one residue held at a place counted from the Y acceptor
Experiment: relative phosphorylation of the sub-library (ratio to the mean residue at this position); higher = residue favoured
In short: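 Purified recombinant kinases were given 50 μM ATP with γ-32P-ATP and biotinylated Tyr-centred peptide library mixtures for 90 min in 384-well plates. Peptides bound to streptavidin membranes were rinsed and quantified by phosphorimaging, and intensities were normalized per position by the sum of the 18 randomized residues (16 with the Ser/Thr-free library) and multiplied by that number. The reported values are phosphorylation relative to the mean randomized residue.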

PDHK4, construct: Full length, human, sequence (Q16654 whole entry, looked up): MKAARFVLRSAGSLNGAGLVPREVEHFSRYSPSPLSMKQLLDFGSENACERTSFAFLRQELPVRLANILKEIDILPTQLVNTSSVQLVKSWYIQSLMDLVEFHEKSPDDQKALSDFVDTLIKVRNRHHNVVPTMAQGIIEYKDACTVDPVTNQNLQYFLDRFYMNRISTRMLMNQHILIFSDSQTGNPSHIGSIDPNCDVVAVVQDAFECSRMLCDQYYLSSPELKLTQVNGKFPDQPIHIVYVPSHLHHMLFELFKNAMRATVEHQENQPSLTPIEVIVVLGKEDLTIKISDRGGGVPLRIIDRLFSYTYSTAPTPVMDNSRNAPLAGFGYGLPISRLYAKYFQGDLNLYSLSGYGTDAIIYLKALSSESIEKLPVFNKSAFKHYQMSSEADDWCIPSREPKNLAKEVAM
PDHK1, construct: Full length, human, sequence (Q15118 whole entry, looked up): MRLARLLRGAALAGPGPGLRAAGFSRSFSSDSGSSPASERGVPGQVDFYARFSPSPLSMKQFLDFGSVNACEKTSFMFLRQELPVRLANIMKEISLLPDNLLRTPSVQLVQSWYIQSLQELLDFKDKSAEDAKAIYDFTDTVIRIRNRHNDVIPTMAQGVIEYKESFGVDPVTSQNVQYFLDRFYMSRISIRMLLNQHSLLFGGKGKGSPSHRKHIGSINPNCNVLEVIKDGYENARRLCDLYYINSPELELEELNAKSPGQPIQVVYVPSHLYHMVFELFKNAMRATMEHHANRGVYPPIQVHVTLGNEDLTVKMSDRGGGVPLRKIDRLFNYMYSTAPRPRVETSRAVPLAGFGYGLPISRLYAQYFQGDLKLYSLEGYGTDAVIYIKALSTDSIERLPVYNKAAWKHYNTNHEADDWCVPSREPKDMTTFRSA
ALK, construct: aa1058-end, human, sequence (Q9UM73 1058-1620, looked up): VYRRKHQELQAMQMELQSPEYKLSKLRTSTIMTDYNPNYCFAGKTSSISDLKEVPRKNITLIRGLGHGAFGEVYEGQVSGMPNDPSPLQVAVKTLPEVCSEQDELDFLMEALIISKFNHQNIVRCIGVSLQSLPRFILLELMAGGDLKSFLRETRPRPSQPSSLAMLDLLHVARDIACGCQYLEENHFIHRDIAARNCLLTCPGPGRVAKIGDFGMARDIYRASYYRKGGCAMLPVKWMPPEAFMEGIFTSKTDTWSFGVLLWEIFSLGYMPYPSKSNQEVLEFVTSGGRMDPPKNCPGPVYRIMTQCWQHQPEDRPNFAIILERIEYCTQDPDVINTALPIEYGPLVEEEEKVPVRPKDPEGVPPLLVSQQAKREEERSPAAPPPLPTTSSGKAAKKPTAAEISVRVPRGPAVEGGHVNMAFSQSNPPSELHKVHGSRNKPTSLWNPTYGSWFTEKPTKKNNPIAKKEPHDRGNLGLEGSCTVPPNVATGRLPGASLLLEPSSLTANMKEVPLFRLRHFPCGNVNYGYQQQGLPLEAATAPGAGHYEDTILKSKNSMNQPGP

PDHK4, construct: Full length, human (from UniProt Q16654)
relative phosphorylation
Conditions	at +1	at +2	at +3	at +4	at +5	at -1	at -2	at -3	at -4	at -5
A fixed	0.747	0.56	0.742	0.698	0.589	0.81	0.808	0.801	0.946	0.872
D fixed	1.19	1.6	1.29	1.41	1.34	1.15	1.15	1.25	1.27	1.31
E fixed	1.04	1.2	1.49	1.26	1.33	1.02	1.11	0.838	1.11	1.17
F fixed	0.751	0.966	0.945	0.996	1.01	0.723	0.874	0.873	0.94	0.934
G fixed	1.01	0.938	1.02	0.95	1.05	1.17	1.24	1.26	1.19	1.1
H fixed	0.998	1.01	0.995	1.11	1.03	1.05	0.911	0.777	0.983	1.11
I fixed	0.568	0.546	0.652	0.669	0.722	0.654	0.654	0.568	0.739	0.773
K fixed	1.04	0.95	0.777	0.863	0.777	1.14	0.926	1.25	0.945	1.02
L fixed	0.798	0.809	0.798	1.1	1.03	0.823	1.1	0.99	0.827	0.827
M fixed	0.695	0.776	0.891	0.92	0.968	0.75	0.796	0.712	0.822	0.809
N fixed	1.49	1.3	1.16	1.15	1.06	1.34	1.21	1.14	1.01	1.07
P fixed	1.15	1.1	1.09	1.06	0.957	1.27	1.22	1.74	1.1	1.11
Q fixed	1.39	1.42	1.19	1.26	1.21	1.32	1.11	1.24	1.02	1.03
R fixed	1.17	0.976	0.885	0.812	0.798	1.11	1.09	0.868	1.06	0.994
V fixed	0.572	0.565	0.604	0.644	0.703	0.539	0.652	0.645	0.669	0.681
W fixed	1.39	1.28	1.47	1.1	1.44	1.13	1.15	1.05	1.37	1.18
pThr fixed	1.31	1.69	1.35	1.51	1.1	1.43	1.19	1.42	1.32	1.43
pTyr fixed	1.1	1.18	0.974	1.03	1.43	1.09	1.09	0.858	1.18	1.28

PDHK1, construct: Full length, human (from UniProt Q15118)
relative phosphorylation
Conditions	at +1	at +2	at +3	at +4	at +5	at -1	at -2	at -3	at -4	at -5
A fixed	0.893	0.682	0.8	0.868	0.717	0.76	1.54	0.847	0.895	0.845
D fixed	1.27	1.58	1.3	1.3	1.52	1.58	1.19	1.2	1.32	1.24
E fixed	1.12	1.17	1.41	1.16	1.27	1.96	1.24	1.06	1.26	1.34
F fixed	0.897	1.29	0.991	0.899	0.97	0.627	0.764	0.933	1.06	1.01
G fixed	1.04	0.92	1.02	1.16	1.1	0.971	1.17	1.03	1.06	0.973
H fixed	1.2	1.02	1.03	1.17	1.08	0.937	0.903	1.01	1	1.14
I fixed	0.779	0.704	0.862	0.895	0.845	0.938	0.71	0.72	0.755	0.844
K fixed	0.785	0.938	0.809	0.891	0.784	0.819	0.827	0.912	0.865	0.974
L fixed	0.844	0.863	0.78	0.907	0.838	0.888	0.72	0.93	0.881	0.906
M fixed	1.18	0.882	1.03	0.911	0.873	0.794	0.826	0.843	0.914	0.837
N fixed	1.1	1.02	1.01	0.982	1.04	1.03	1.01	1.01	0.997	1.03
P fixed	0.925	1.1	0.981	1.16	0.898	0.974	1.73	1.06	0.91	0.945
Q fixed	0.986	0.997	1.02	0.986	0.992	0.983	0.863	1.19	1.18	0.977
R fixed	0.822	0.851	0.899	0.819	0.863	0.744	0.818	0.976	0.891	0.935
V fixed	0.739	0.707	0.766	0.718	0.747	1.03	0.758	0.802	0.759	0.702
W fixed	1.41	1.27	1.3	1.18	1.47	0.96	0.934	1.48	1.26	1.3
pThr fixed	1.42	1.51	1.34	1.12	1.01	1.72	1.35	1.53	1.52	1.45
pTyr fixed	1.23	1.36	1.41	1.14	1.31	1.71	1.63	1.64	1.36	1.47

ALK, construct: aa1058-end, human (from UniProt Q9UM73)
relative phosphorylation
Conditions	at +1	at +2	at +3	at +4	at +5	at -1	at -2	at -3	at -4	at -5
A fixed	1.39	0.79	0.525	0.758	0.82	0.976	1.09	0.931	1.23	1.06
D fixed	0.468	0.286	0.207	0.721	0.44	1.42	0.92	1.09	1.01	1.01
E fixed	1.42	0.713	0.206	0.871	0.407	0.955	1.02	1.42	1.22	0.887
F fixed	1.04	1.16	1.55	1.34	2.19	1.08	0.732	1.05	1.02	1
G fixed	0.495	0.403	0.445	0.805	0.774	0.349	1.06	1.06	1.27	1.15
H fixed	1.15	0.762	1.14	1.17	0.806	1.02	1.18	0.992	0.88	0.985
I fixed	1.59	1.17	3.08	0.994	1.43	2.22	1.08	0.683	0.817	0.925
K fixed	0.398	0.982	0.401	0.984	0.661	0.353	0.998	1.04	0.956	1.15
L fixed	1.24	1.44	1.22	0.906	1.55	1.64	0.915	0.81	0.954	0.983
M fixed	2.11	1.42	1.78	1.16	1.38	0.903	0.871	0.901	0.918	0.977
N fixed	0.472	0.837	0.496	0.855	0.697	1.31	0.952	1.2	0.882	1.09
P fixed	0.296	0.934	0.476	0.939	1.54	1.06	1.11	1.1	1.29	1.21
Q fixed	1.15	0.852	0.414	1.11	0.601	0.669	1.04	0.908	1.09	0.946
R fixed	0.528	1.46	0.667	1.31	0.879	0.346	1.19	1.19	1.31	1.21
S fixed	0.929	0.776	0.526	0.873	0.706	0.64	1.13	1.05	0.776	0.857
T fixed	0.947	0.682	0.854	0.842	0.974	0.91	1.06	0.983	0.644	0.76
V fixed	1.43	1.06	2.3	0.998	0.968	1.53	0.929	0.733	0.803	0.819
W fixed	0.939	2.26	1.72	1.36	1.18	0.613	0.72	0.865	0.927	0.963
pThr fixed	1.14	0.414	0.169	0.406	0.326	0.79	0.836	0.834	0.909	0.952
pTyr fixed	1.35	1.01	0.343	1.03	0.309	3.63	1.06	1.14	1.17	1.06

PTK6, construct: Full length, human (from UniProt Q13882)
relative phosphorylation
Conditions	at +1	at +2	at +3	at +4	at +5	at -1	at -2	at -3	at -4	at -5
A fixed	0.945	0.766	0.805	0.972	0.852	0.665	0.982	0.951	1.08	1.03
D fixed	0.404	0.528	1.01	0.758	0.874	0.64	1.12	1.18	1.33	1.15
E fixed	1.42	0.424	0.846	0.904	0.956	0.542	1.27	1.79	1.39	1.17
F fixed	0.732	1.11	1.43	1.22	1.45	2.44	0.78	1.19	1.12	1.07
G fixed	1.13	0.736	1.32	1.11	1.02	0.288	1.28	0.942	1.12	1.07
H fixed	0.786	0.574	1.3	1.05	0.954	1.52	1.18	1.04	1.04	0.925
I fixed	1.23	1.12	0.957	0.798	1.12	3.11	0.824	0.81	0.822	0.888
K fixed	0.652	0.804	0.718	0.949	0.775	0.283	0.529	0.728	0.697	0.917
L fixed	0.869	1.47	0.689	0.813	1.06	1.62	0.881	0.879	0.919	0.99
M fixed	1.02	1.51	0.755	1.09	1.08	0.805	0.702	0.867	0.843	0.948
N fixed	0.91	1.04	0.812	0.784	0.878	0.587	1.17	1.25	1.22	1.11
P fixed	0.223	1.1	0.995	1.35	1.36	0.774	0.976	0.869	1.11	1.1
Q fixed	1.32	0.607	0.763	1.01	0.75	0.43	0.998	0.811	0.977	0.995
R fixed	1.07	1.12	0.985	1.17	0.853	0.261	0.631	0.86	0.821	0.997
S fixed	1.24	0.902	0.97	0.871	0.837	0.418	1.2	0.962	0.833	0.863
T fixed	1.64	0.587	0.732	0.72	0.818	0.83	0.814	0.84	0.637	0.778
V fixed	1.48	0.616	0.863	0.884	0.898	1.43	0.855	0.705	0.742	0.632
W fixed	0.938	2.98	2.04	1.55	1.46	1.35	1.81	1.33	1.3	1.38
pThr fixed	0.711	0.441	0.759	0.797	0.891	0.57	0.79	0.848	0.878	1.08
pTyr fixed	1.06	0.75	1.06	1.28	1.08	3.6	1.01	1.21	1.15	1.14
